The results in this text go back to publication doi:10.1101/2022.06.01.494241 (bioRxiv, 2022).

For this experiment, the target named is T1, μMASS^2A (rat).
T1 chain: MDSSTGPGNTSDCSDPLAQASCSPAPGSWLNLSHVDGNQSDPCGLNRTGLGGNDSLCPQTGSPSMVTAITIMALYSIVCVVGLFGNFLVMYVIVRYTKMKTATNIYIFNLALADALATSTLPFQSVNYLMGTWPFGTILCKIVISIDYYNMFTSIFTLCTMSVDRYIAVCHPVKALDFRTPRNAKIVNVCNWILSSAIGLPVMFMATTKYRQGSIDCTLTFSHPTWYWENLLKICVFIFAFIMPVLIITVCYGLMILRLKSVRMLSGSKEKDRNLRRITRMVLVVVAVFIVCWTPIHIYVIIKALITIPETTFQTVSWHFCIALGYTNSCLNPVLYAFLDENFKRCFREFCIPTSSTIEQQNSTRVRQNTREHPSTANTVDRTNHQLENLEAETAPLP
Kind of experiment: other fluorescence titration.

As for YGGFMTSEKSQTPLVTLFKNAIIKNAYKKGE (peptide, UniProt P01189 237-267, looked up) [β-endorphin], the Kd – broadly, the constant that tells how readily two partners part at equilibrium – worked out at 1.18 µM.
